# Measured values published in a protein production outcome set (Wang et al. 2014).
# Assay: label from the status in PepcDB records
row,Sequence,protein production
1,MSTPETYKRSALNPETSLLLFLVPNPSNLTPISYTLTIPPPHEKTMLDKHGLLTQPISDVLRKLTTPMVFGMVAILLFNLVDTFFISLLGTDALAAVSFTFPVTFAVNCITMGIGVGLSASIGHLLGEGHSKHAAELTTHGIILAISLILIACALGFFTIDPLFTLLGAEDKLLPLIDEYMSIWYLTIPLLVIPMSSNSAIRATGDTKTPAKIMMLAGLINGILDPLLIFGYGPFPELGIQGAAIASAISWLGALIASFYVLTHKVKLLALPNKNTLISDWKQILTIGSPAALSNALNPISGAILMMMLASQGTVAVASYGAAQRVESLMLLVIMALTSSLSPLVAQNLGAKQPERVKEAIFLAIKFSVAFQLFLYILIVPLSIPISHLFSQDDAVQHGLWMYLICVPFSYGFQGIVMVLVSSLNAMKKPLYSFSWSFMRLFVFTLPTAWIGSQIYGMEGLFIGIAMGNVMGGISAFWYARTRIRFEDAALEERGDTKS,failed
2,MSTRLCEPSLRDDGAQRGTPASHGKWCDTGAFKLDETPSPVVANVSSTSDASFQFNRTPSPGKHQNHAADRSMWSLDDFVIIRKLDEGRFGKVYLAREKQSKCAVVLKCISKDMIRFHSLAHQLQREVELQEYAGRYHKNVLRLFAYFWDDVRIVLVLEYADSGTLQDLLDCYREKEQRSSLPDDKVRTILLQLLSALAFLHERDIIHRDVKPDNILFHGEKLLLADFSWAVRVNNSDPRYCRRHTVCGTLDYLAPEQVLKRGCTTKADLWAVGVVAYRMLCGFLPFEMLDARDVCSCIASGAIRYPSQLSPTARHFLQGLLRVDEALRFSCQEALNHPFMRGDCNCRISNRYIESKHRARAEEPVLQHQGSFDTT,failed
3,MSTVKNGTLEQDKLNWFKYLLFGIQHVLVMIAVPITSVFLVAKALSLSDQLTVNLMSATFLVCGLGTLLQSIGVYKFGSRLPFVMIPGGAPIVMFLGIAQEKDLATASGAVILTSLFYFIILPVFKRFLRFFPNIVIGTLLILVSINLIKIYGGLVIGKPDTADFASTLNIGLAFATIAASLFFARVLKGTLSQLSILLGLIFGTILSAFLGQMHFETITQPTIFSLPTIMPFGVPKFDLVATIPLLIFSLISMVEATGQTIAISDLVGKKETAFERVPPTIRGDALISLLGGWLGTSMIITSGENIGIVRATQVRSRYVTIIAGIILLIISVFTPLAHLANAIPVAVVSGTAIIVFSIIGTIGIDILRRVDLHEKGNMYVLAGALTMGLLPILVNGVYTNFPHALQPILNNGLAMGALTAILLNIVFSTHSQADAHQESK,failed
4,MSTVPISGRSQIMLVQDSEILSSSALQYKQFLSKVKISKNATSTAQVRRVGQKVAAATMLYLKQNGLGDMASQMKWEFNVVEDKAVNAFCMPGGKIVVYTGLLKLVGSDAELATVISHEVSHAVARHSNERISQEYLRQMGGNILGAAVSNKSAALQTVIGQAYGIGSQVLITLPYNRKQEYEADKIGLVFMAMAGYNPNAAITFWQKMAAQGNGRVEFLSTHPSDANRIAAIRQYMPEAMKHYKSKLEHHHHHH,not failed
5,MSVDPACPQSLPCFEASDCKESSPMPVICGPEENYPSLQMSSAEMPHTETVSPLPSSMDLLIQDSPDSSTSPKGKQPTSAENSVAKKEDKVPVKKQKTRTVFSSTQLCVLNDRFQRQKYLSLQQMQELSNILNLSYKQVKTWFQNQRMKSKRWQKNNWPKNSNGVTQKASAPTYPSLYSSYHQGCLVNPTGNLPMWSNQTWNNSTWSNQTQNIQSWSNHSWNTQTWCTQSWNNQAWNSPFYNCGEESLQSCMHFQPNSPASDLEAALEAAGEGLNVIQQTTRYFSTPQTMDLFLNYSMNMQPEDV,not failed
6,MSVDQMAHYQRKLAYEMDSWDLYIALNEGQAITIVDGRSEAAFADEHIPGALNLPHKEICFNSTQMLDKSKLYVCYCDGIGCNASTKTALNLLTLGFDVRELIGGLDWWKRDGYATDGKKAQLGTKINCGC,failed
7,MSVDTTVKNRVYPAIPPTQLPEFETIFGHPKPLWMLFMAEFWERFAFYGIRWALTLYIVTQFFDGNAIGEGNANSTYGAYLALVYASAIFGGFIADRIIGYQRSIIIGAVIMACGLFLITVPSRTMFEIGLATIVIGNGLFKPNISSLVGQLYAEGDTRRDRGFTIFYMGINAGSLISPLITSWLAGQVFGTPMQQNYKVVFIASGIGMFLSLLWFWIGKRQLKGIGLSPKGGESIFRTFLIVFGALLAIPLAYLLLAKLNATTLAWILGLLFAVLATLLIVTALRNGKIQRDRVIAMLIIFVFNVMFWMFFEQAGSSFNFLAKNIVDRQILSNWEFPVGWFQSVNPLAIILLAPIIAVIWSLLDKYRIEPSIPRKFSFGLMFNGFGFLILMYALSNLLNASNMIPFWSLIAVYVIQTVGELCLSPIGLSMVTKLAPVRLVGFAMGGWFLSTAIGNNLSGVFASFVSGEEGMTVSSALRGYTFGFWSLIGSGILLFLISPLINRLMHGVK,failed
8,MSVFAGLVEQLADVLQPLFHASAAAAAIVLFTALVRLLVHPLSRASARGQRARARLQPQVAELRKKHGKNPEKLQKALLELHAEEKVSPLSGCLPGLFQLPAFFLLYHLFSNTTIGGEGNELLTHTLFTAPLGDRWADALGDGGPFGTQGLVYLGLFAIVAAVATFNYRRTKRTMAANPLPVGDGEQQVPGLGAINRFMPLMSFFTLFTVAFVPLAAALYVVTSTTWSAVERAALYPVPERSS,failed
9,MSVKGFFFILVFFLVAIMGFLIYISETVVVKYLYIAEALMLLLMLYLILFYRKIVKPMNTIGSGMELLREQDFSSRLSHVGQQEADRVVNVFNRMMEQLKNERLRLREQNHFLDLMINASPMGVIIMTLDEEVSQLNPMAMKMMGVRPEEAEGRKLSEIDSPLALELAAIPNGETSTVRLNDSSIYKCTHSSFVDRGFQHPFYLMEGLTDEVMKAEKKAYEKVIRMIAHEVNNTTAGITSTLDTVEQALSESEGMEDICDVMRVCTERCFSMSHFITRFADVVKIPEPRFTPTNLNDLAFTCKRFMEGMCNDRNIRLQLICDESLDDVKLDASLFEQVLVNIIKNAAESIGQDGQIIIRTSLPTAIEVVDNGPGISKETEAKLFSPFFSTKPNGQGIGLIFIREVLSRHGCTFSLRTYADGLTRFRILFP,failed
10,MSVKTWRKIAIDIIRDFDHNIMPLFGNPKASETISISPSGDETKVVDKVAENIIISKFKDLGVNVVSEEIGRIDQGSDYTVVVDPLDGSYNFINGIPFFAVSVAIFHEKDPIYAFIYEPIVERLYEGIPGKGSYLNGEKIKVRELAEKPSISFYTKGKGTKIIDKVKRTRTLGAIALELAYLARGALDAVVDIRNYLRPTDIAAGVVIAREAGAIVKDLDGKDVEITFSATEKVNIIAANNEELLETILRSIEK,not failed
11,MSVPAIAPRRKRLADGLSVTQKVFVRSRNGGATKIVREHYLRSDIPCLSRSCTKCPQIVVPDAQNELPKFILSDSPLELSAPIGKHYVVLDTNVVLQAIDLLENPNCFFDVIVPQIVLDEVRNKSYPVYTRLRTLCRDSDDHKRFIVFHNEFSEHTFVERLPNETINDRNDRAIRKTCQWYSEHLKPYDINVVLVTNDRLNREAATKEVESNIITKSLVQYIELLPNADDIRDSIPQMDSFDKDLERDTFSDFTFPEYYSTARVMGGLKNGVLYQGNIQISEYNFLEGSVSLPRFSKPVLIVGQKNLNRAFNGDQVIVELLPQSEWKAPSSIVLDSEHFDVNDNPDIEAGDDDDNNESSSNTTVISDKQRRLLAKDAMIAQRSKKIQPTAKVVYIQRRSWRQYVGQLAPSSVDPQSSSTQNVFVILMDKCLPKVRIRTRRAAELLDKRIVISIDSWPTTHKYPLGHFVRDLGTIESAQAETEALLLEHDVEYRPFSKKVLECLPAEGHDWKAPTKLDDPEAVSKDPLLTKRKDLRDKLICSIDPPGCVDIDDALHAKKLPNGNWEVGVHIADVTHFVKPGTALDAEGAARGTSVYLVDKRIDMLPMLLGTDLCSLKPYVDRFAFSVIWELDDSANIVNVNFMKSVIRSREAFSYEQAQLRIDDKTQNDELTMGMRALLKLSVKLKQKRLEAGALNLASPEVKVHMDSETSDPNEVEIKKLLATNSLVEEFMLLANISVARKIYDAFPQTAMLRRHAAPPSTNFEILNEMLNTRKNMSISLESSKALADSLDRCVDPEDPYFNTLVRIMSTRCMMAAQYFYSGAYSYPDFRHYGLAVDIYTHFTSPIRRYCDVVAHRQLAGAIGYEPLSLTHRDKNKMDMICRNINRKHRNAQFAGRASIEYYVGQVMRNNESTETGYVIKVFNNGIVVLVPKFGVEGLIRLDNLTEDPNSAAFDEVEYKLTFVPTNSDKPRDVYVFDKVEVQVRSVMDPITSKRKAELLLK,failed
12,MSVPGPSSPDGALTRPPYCLEAGEPTPGLSDTSPDEGLIEDLTIEDKAVEQLAEGLLSHYLPDLQRSKQALQELTQNQVVLLDTLEQEISKFKECHSMLDINALFAEAKHYHAKLVNIRKEMLMLHEKTSKLKKRALKLQQKRQKEELEREQQREKEFEREKQLTARPAKRM,failed
13,MSVPQRPHQFVLTLSCPSAAGQVAAVVGLLDRHRCYVDELTVFDDDLSARFFVRCVFHATDDADALRVDALRREFEPIAERFRMQWAIHDVAARPKVLIMVSKLEHCLADLLFRWKMGELKMDIVGIVSNHPDFAPLAAQHGLPFRHFPITADTKAQQEAQWLDVFETSGAELVILARYMQVLSPEASARLANRAINIHHSFLPGFKGAKPYHQAHARGVKLIGATAHFVTDDLDEGPIIEQVVERVDHSYRPEQLLAVGRDVECITLARAVKAFIERRVFLNGDRTVVFQ,not failed
14,MSVRDLIPWSRGGGPAPSIYRGDDMDPFLSLHRNVNRLFDEVFRGFDTPSVLGRMAPLNGTWPGVEFSETDEEIRLTAEIPGLDENDVEVMLDDGVLTLRGEKKAETEDKDRQFSERYYGRFERRFGLGREVEDDKVAATFKNGVLTVTLPKTKRAQANAKRIAINGNK,failed
15,MSVRVYIGNLPRDIEQAELDAVFAEAGEVSAKLVTDRKTGKSRGFAFATVASDELADALIERFNGTEVQGSTLKLEKAQPRERDNEGGNNRRRSGGGGNDNRRSGKSAPRVISSGPEGFQPDPRWAQELEKLKELLAAQTVS,failed
16,MSVSIILMGLFVGALVGLTGVGGAALLTPLLIVLGINPSIAVGTDLVYNSITKLFGVASHWRQKTINFKLVKYLAIGSIPSASLAIGILHLFPAFHQHQEEIIKHALGYVLTLVAISIIVRLFLDRKLRPNRWQLMPLENKRALTILIGVVFGFIVGLTSIGSGSLFAIAMIYLFNMKASQIVGTDIAHAFLLVTAAGILNASFGSVDYMLAANLLLGSIPGVLIGSHLSPRFSPRPLQFIMASIILVSGLKLI,failed
17,MSVSVRSYLSPTLVLLAFDWPDAQRRDDFLGFAIKRTPGFWSADGKTRAATSWLPNRLTFDGPAAHTQGDAPTDQAPIQKFMWWDARIDPPDRGRAFRYDVYPVVGTPASLRVLEADAGGCTVTLPAHVEGGVGTWFNRAVVSSQAFAKQVRALRLADGAAPSPDAARRLRTWLANDLEETFGLMLGADARRAVSAVYHLTDPLWAIPAFDAFGRAHGADALAIVYDAHETKRGSGEPPLPSPNQAAVEQLTGVATLAPRDKTRIMHDKFIVAGDEAGPARVLTGSANFTTEGITEQANVLHTFESAALAGLYNACARALASNPCVAETARLAPGWSEPVEVGTARVRVSFSPEPRGARTQIDTIVDAIRGARHSVVFCLFMPTDAALRDACFAAGDRGLMMFGLVNAISARGAQQADADRRDGKTLDAARLANLELYHRSRSNRDVIDAAYFSPATVPAGFEAELRLFPGEAPPPYPPVVVHHKFIVIDAEGANPIVYSGSANMSANSEHYNDENLLEIRDARVAGIYLAEFLRLYEHYRARALAIASRRGNGSGAGGAAGPHGGLALQPDSRWAKKYFVDASPEEKARIALAAPVAAR,failed
